# The DeepSol protein solubility set
# Experiment: soluble on expression in E. coli; label from the status in PepcDB or PDB records
row,Sequence,soluble on expression in E. coli
1,MGVSPAAPASGIRRPCYLVLSSHDFRTPRRANIHFITDQLALRGTTRFFSLRYSRLSRMKGDMRLPLDDTANTVVSHNGVDCYLWRTTVHPFNTRRSWLRPVEDAMFRWYAAHPPKQLLDWMRESDVIVFESGIAVAFIELAKRVNPAAKLVYRASDGLSTINVASYIEREFDRVAPTLDVIALVSPAMAAEVVSRDNVFHVGHGVDHNLDQLGDPSPYAEGIHAVAVGSMLFDPEFFVVASKAFPQVTFHVIGSGMGRHPGYGDNVIVYGEMKHAQTIGYIKHARFGIAPYASEQVPVYLADSSMKLLQYDFFGLPAVCPNAVVGPYKSRFGYTPGNADSVIAAITQALEAPRVRYRQCLNWSDTTDRVLDPRAYPETRLYPHPPTAAPQLSSEAALSHHHHHHH,soluble
2,MAHHHHHHMAKTVDNAALLAEIDQLRRLIAEKEALITPDGGSLSKKSKKKSQMNMVETEPVQGCRDFPPETMRLRKYLFDVFHSTARKFGFEEYDSPVLESEELYIRKAGEEITEQMFNFITKGGHRVALRPEMTPSLARQLLAKGRSLLLPAKWYSIPQCWRYEAITRGRRREHYQWNMDIIGVKSVSSEVELVCAACTAMQSLGLSSKDVGVKINSRKILQTVVEQAGVSADKFAPVCVIVDKMEKLPREEVVAQLAAIGLESNVVDAITSTLSLKTIDEIAQRIGEEHEAVRELRDFITQIEAYGFGDWVIFDASVVRGLAYYTGIVFEGFDRDGNFRALCGGGRYDNLLTTYGSPTAVPCVGFGFGDCVIVELLNEKKLLPELHHVVDDLVIPFDETMRPHALSILRRLRDAGRSADIVFDKKKVVQAFNYADRIGALRAVLVAPDEWARGEVRVKMLREGAGREEGANERGIVLPVDKIV,not soluble
3,MSGRRKGCSAATASSSSSSPPSRLPPLPGHARRPRRKRCLVPEVFCTRDLADLCVRRDYEGLRRYLRRFEGSCVSLGWPSQCIYVVGGEHSPHSLTEIDLEHCQNDFFGEFRALHLIGTVSHATCRYQVFVDAYGAVFAYDAQEDCLYELASDLAGFFAKGMIRCDPVHESICARLQPNVPLVHPDHRAELCRRSRASARGRYLRSLLAFRELLACEDTAARCAYVEAHREAQLTLIWPEKHSLVLRTARDLGLSASMLRRFQRSLYTREPVMPLGEIEGAEDKTFFHRVRILCGDTGTVYAALVGQDKLVRLARDLRGFVRVGLALLIDDFRYESIGPVDRSSLYEANPELRLPFKKRRLEHHHHHH,not soluble
4,MGSDKIHHHHHHMKRSQINEIMAEAETFMRSFGFVLPPFAYWTPEEMRANASVAKAVIDGRLGWDITDYGEGKFDELGLFLFTLRNGRLSDLQAGGGMCYAEKLLISKQDQISPMHRHMLKAEDIINRGGATMAIELNGSAPDGSFDPDAGGVVMCDGIERRFSAGEVLLFAPGESVTLMPGDWHKFWGEGGDVLIGEVSTVNNDDTDNWFREPIGRFAAVDEDVAPTHLLVSDYGTWL,not soluble
5,MAHHHHHHMSLTKGSKAAQDVISFLHTVGRLKVTARQGWVENQICSPESVSDHMYRMSLMCMMCPDTSLNRDRMVKMALCHDTGESIIGDISPAMKVPKEVKKQQESQAVQSLCKLVSSSPNTTFSKELGDLFEEYEAQETAESHFVKDMDLLEMVVQAHSYESANPGKDLGSFFRSGANIHHPWARAIYETLLETRPYLAYKEEQAKEASSI,soluble
6,MSLQGGIRFSDGIAAVADNEVITRRRLAEAVAEAKANLPKDAQISESELSRQVLMQLVNQSLIVQAGKRRNIQASEAEIDAVVAKNPALKNLSPAQRRDFADNIIAEKVRQQAVMQNSRVSEAEIDAFLEQAQKQGITLPEGAPLRQYRAQHILIKADSENAAVGAESTIRKIYGEARSGTDFSSLARQYSQDASAGNGGDLGWFADGVMVPAFEEAVHALKPGQVGAPVRTQFGWHIIKLNEVRDAGTPQERIRNSVRQYIFQQKAEQATVNLLRDLHSGAYVDIREGHHHHHH,soluble
7,MGSDKIHHHHHHMRKFNLTALSVMLALGLTACQPPEAEKAAPAASGEAQTANEGGSVSIAVNDNACEPMELTVPSGQVVFNIKNNSGRKLEWEILKGVMVVDERENIAPGLSDKMTVTLLPGEYEMTCGLLTNPRGKLVVTDSGFKDTANEADLEKLSQPLADYKAYVQGEVKELVAKTKTFTEAVKAGDIEKAKSLFADTRVHYERIEPIAELFSELDPVIDAREDDFKDGAKDAGFTGFHRIEYALWVEKDVSGVKEIAAKLMTDVEALQKEIDALAFPPGKVVGGASELIEEVAGSKISGEEDRYSHTDLSDFQANVDGSKKIVDLFRPLIEAKNKALLEKTDTNFKQVNEILAKYRTKDGFETYDKLGEADRKALQASINALAEDLAQLRGILGLK,not soluble
8,MSTSEDKPEIISRVVHQEGDVEIVDRSQKDKDEEKEEGKGGFLDKVKDFIHDIGEKLEGTIGFGKPTADVSAIHIPKINLERADIVVDVLVKNPNPVPIPLIDVNYLVESDGRKLVSGLIPDAGTLKAHGEETVKIPLTLIYDDIKSTYNDINPGMIIPYRIKVDLIVDVPVLGRLTLPLEKCGEIPIPKKPDVDIEKIKFQKFSLEETVAILHVRLQNMNDFDLGLNDLDCEVWLCDVSIGKAEIADSIKLDKNGSGLINVPMTFRPKDFGSALWDMIRGKGTGYTIKGNIDVDTPFGAMKLPIIKEGGETRLKKEDDDDDDEE,soluble
9,QCTGGADCTSCTGACTGCGNCPNAVTCTNSQHCVKANTCTGSTDCNTAQTCTNSKDCFEANTCTDSTNCYKATACTNSSGCPGH,soluble
10,MSLHSPGKAFRAALTKENPLQIVGTINANHALLAQRAGYQAIYLSGGGVAAGSLGLPDLGISTLDDVLTDIRRITDVCSLPLLVDADIGFGSSAFNVARTVKSMIKAGAAGLHIEDQVGAKRCGHRPNKAIVSKEEMVDRIRAAVDAKTDPDFVIMARTDALAVEGLDAAIERAQAYVEAGAEMLFPEAITELAMYRQFADAVQVPILANITEFGATPLFTTDELRSAHVAMALYPLSAFRAMNRAAEHVYNVLRQEGTQKSVIDTMQTRNELYESINYYQYEEKLDNLFARSQVK,soluble
11,MVQRLISANASEIKRMSKEELFQSIKASEGRVILSENVVVHPSVAGDITCAEMSKAYGADMILLNVFDVNQPIVVAAYEGQYTAETCVPNDEVVHRLKELVGLPIGMNVEPVDENLDLASTRVSIEPGRKASAATFKKANELGLDFILLTGNPGTGVTNDLIAKNVALAKKHFDGIIIAGKMHSSGVDEPVVSLKSAEQFIEAGADIVLVPAVGTVWGIDDQQVKEVVDFAHSKGKLVMSAIGTSQESAQPEVIQAIGIRNKILGVDIQHIGDANMGLVGIENIKELSDAIRGKRHTVARMARSINR,not soluble
12,GHMAAPILKDVVAYVEVWSSNGTENYSKTFTTQLVDMGAKVSKTFNKQVTHVIFKDGYQSTWDKAQKRGVKLVSVLWVEKCRTAGAHIDESLFPAANMNEHLS,soluble
13,SMARENGESSSSWKKQAEDIKKIFEFKETLGTGAFSEVVLAEEKATGKLFAVKCIPKKALKGKESSIENEIAVLRKIKHENIVALEDIYESPNHLYLVMQLVSGGELFDRIVEKGFYTEKDASTLIRQVLDAVYYLHRMGIVHRDLKPENLLYYSQDEESKIMISDFGLSKMEGKGDVMSTACGTPGYVAPEVLAQKPYSKAVDCWSIGVIAYILLCGYPPFYDENDSKLFEQILKAEYEFDSPYWDDISDSAKDFIRNLMEKDPNKRYTCEQAARHPWIAGDTALNKNIHESVSAQIRKNFAKSKWRQAFNATAVVRHMRKLHLGSSLDSSNA,soluble
14,MGSDKIHHHHHHMKLRLRKPMRSAGNMSSLVDFYNDFITRHGFEERKGIEETLRYLENGHNVILKAPTGYGKTTLTMILANAVSSNIDIGSRVIHVLPYRAIVQDLYLKLKKYADKGIIYTKSIGAQDMDYHDSPFFMKKVNVTTLDTFILNLFKLPTIDFKLIFKNYGSHYEFPRALIYSSIVIFDEFHLLGEDGKSLGAGLSAIEVLSDAGVPIVVTSATIDKGLERVLMDKLGKSGKVVYASDFKIDRKIYVNELEKDEISIADEKVKEGKRVLLVYNTRMGAIEAYWKLKERGLSPILIHSKFSKKDRIDKVNKINDAKLVVSTQVIEAGIDTSFDVLITEACPSHNLIQRAGRVARYGKGGKGKLEGEVYIFPFSGKVYNEGEVKETMKRVRKLKTIDESLLIERDYTKEIDSILARDLSVIDNSVFVDYKKVKSLYENICSITRETSIILGFPPNSDNVDDAIPLTEEEAIKIIKSKGSSAFVGNSNIKLYAGKCLQLEMIKNDILGVRIQDYNSEIGGVY,not soluble
15,MRALAKLAPEEGLTLVDRPVPEPGPGEILVRVEAASICGTDLHIWKWDAWARGRIRPPLVTGHEFSGVVEAVGPGVRRPQVGDHVSLESHIVCHACPACRTGNYHVCLNTQILGVDRDGGFAEYVVVPAENAWVNPKDLPFEVAAILEPFGNAVHTVYAGSGVSGKSVLITGAGPIGLMAAMVVRASGAGPILVSDPNPYRLAFARPYADRLVNPLEEDLLEVVRRVTGSGVEVLLEFSGNEAAIHQGLMALIPGGEARILGIPSDPIRFDLAGELVMRGITAFGIAGRRLWQTWMQGTALVYSGRVDLSPLLTHRLPLSRYREAFGLLASGQAVKVILDPKA,soluble
16,MSGGSSRRYPPELRERAVRMVAEIRGQHDSEWAAISEVARLLGVGCAETVRKWVRQAQVDAGARPGTTTEESAELKRLRRDNAELRRANAILKTASAFFAAELDRPAR,soluble
17,MGSDKIHHHHHHMSWRYALKNYVTSPETVNDDTVTYFDDKVSIIRDSFPKSECHLLILPRTMQLSRSHPTKVIDAKFKNEFESYVNSAIDHIFRHFQEKFRIKKSDDDKDPCWDDILKDKNKFVRNFVQVGIHSVPSMANLHIHVISKDFHSVRLKNKKHYNSFNTGFFISWDDLPLNGKNLGTDKEIETTYLKEHDLLCCYCQRNFSNKFSLLKKHLELEFNSHFELK,not soluble
18,MANKHHVYWYRHHIVNIIMIVDSKTSDWILIDTGLFYSEAFILKKIRRVLGELIPPKAIILTHGHFDHVGALRPLLQRFPNVPVYAHELELPFLTGQRHYVKPDPSVPGGLMAKLAWLYPYHAYDFSRIICPLPDDGTLPFFTDWRWIHTPGHTEGHVSLFRPSDRFLIAGDAFTTVKQESLLSVLAQKKEIHGPPAYFTPDWELAKTSVETLQKLEPAFAVTGHGQMMEGSSLHSGLKRLISQFEQVAVPDLEHHHHHH,soluble
19,MLGMTHFSQQDNFSVAARVLGALFYYAPESAEAAPLVAVLTSDGWETQWPLPEASLAPLVTAFQTQCEETHAQAWQRLFVGPWALPSPPWGSVWLDRESVLFGDSTLALRQWMREKGIQFEMKQNEPEDHFGSLLLMAAWLAENGRQTECEELLAWHLFPWSTRFLDVFIEKAEHPFYRALGELARLTLAQWQSQLLIPVAVKPLFR,not soluble
20,MGSDKIHHHHHHMLLSMNRVSNPFRATLGSTPPYLAGRRHEIEDFAEALDDGPGAHERISLITGLRGVGKTVLLNAFEEEARARSWWVISETATAGFTERIIDALFRKASEILHTHRRKLSGITLPSIGGIQFSDILEHQPKITLRSVLTEILSWQEEIDRKLGQDSVGLLITLDELHYHRREEVIDFGATIQHLVREDLNISVAMAGIPQSIKPLLASEEGKNPVTFLRRANRIDLGLIDNNEVRKALAEPVEKVGVTWESDALTDAAEACGGYPFMIQLIGQQCFKRKRSNFITVGSVAEAAVVAKRKLGQLVHEPALADLSEVDRTFLVAMAADDGPSTMSDIAQRLGVNSQYAGNYRRRLIDAEIITSSGYGQVDFELPYMREYLREHAVVDVFKQ,not soluble
21,MGSDKIHHHHHHMRVRSVTEEDYLKIIQELVLYQDYAQLSDIAKSLQVKRQSARDEINHLIDLGMVKKIDRGKYVLTDQGDIEANIFLRKHRTAEVLLSQCVGIEWDAVDREAMGIEHGMTEEIIHRVIERFNAKRCPHGNPIPSPEGYVEKIDDVRITDLNETGDVIISRIIYETDEILNYLYANQILPGAKVKIIRTGFPLQIEKDGRLLSLDPSIAKAIRVSSIK,not soluble
